Among the data in patent US20200165333A1 (University of Pennsylvania, published 2020) are Kd values, retold here.

The target in assay [1] is T1, human platelet factor 4 (PF4) (human, UniProt P02776 32-101).
T1 construct: Immobilized on a CM5 chip (Biacore) or on an ELISA plate; also called human PF4
T1 sequence (looked up): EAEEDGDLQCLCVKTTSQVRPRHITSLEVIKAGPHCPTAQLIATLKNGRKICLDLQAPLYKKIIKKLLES
The experiment in a line: SPR (Biacore), human PF4 immobilized on CM5 chip; antibody expressed in 293T cells. As to the method: (§1) The binding affinity of the mammalian-cell-expressed RTO antibodies to human PF4 immobilized on the surface of a CM5 chip was evaluated using Biacore technology. The humanized antibody (huLight, huHeavy) binds to human PF4 at nM levels (Table 1), which is almost identical to the hybridoma-expressed and mammalian-cell-expressed parental antibody mRTO (mLight, mHeavy).
For orientation: Surface plasmon resonance follows binding to a sensor surface in real time, without labels.

Assay [2] has as its target T1, human platelet factor 4 (PF4). The experiment in a line: SPR (Biacore), human PF4 immobilized on CM5 chip; antibody expressed in expi-CHO cells. As to the method:
as §1

In general, Kd refers to a measure of binding affinity in units of concentration. Read a low Kd as a tighter complex.

B1: humanized RTO antibody (huLight, huHeavy) (antibody, V domains shown)
VH: EVQLVESGGGLVQPGGSLRLSCAASGFAFSRYDMSWVRQAPGKGLEWVATITSGDNYTYYPDSVKGRFTISRDNSKNTLYLQMNSLRAEDTAVYYCTRQGLLYYAMDYWGQGTLVTVSS
VL: DIQMTQSPSSLSASVGDRVTISCSASQGINNYLSWYRQKPGKAPKLLIYYTSSLHSGVPSRFSGSGSGTDFTLTISSLQPEDFATYFCQQFSKLPYTFGGGTKVEIKR
notes: Tested as expressed in 293T and in expi-CHO cells; also called huRTO; HuRTO
As for B1, the Kd in assay [1] is 0.75 nM; in assay [2] it was 2 nM.
